# Test results reported in paper PMC11241209, “Elucidation of the Gemcitabine Transporters of Escherichia coli K-12 and Gamma-Proteobacteria Linked to Gemcitabine-Related Chemoresistance” (International Journal of Molecular Sciences, 2024).
# Where two headings read alike, the source gives them in different places.
# T1: CfNupG (Citrobacter freundii, UniProt A0A0D7LJ63)
# T1 construct: gene nupG; full-length, C-terminal biotin-acceptor domain tag (pT7-5/-BAD), expressed in E. coli JW2389 (nupC knockout)
# T1 sequence (A0A0D7LJ63 1-418): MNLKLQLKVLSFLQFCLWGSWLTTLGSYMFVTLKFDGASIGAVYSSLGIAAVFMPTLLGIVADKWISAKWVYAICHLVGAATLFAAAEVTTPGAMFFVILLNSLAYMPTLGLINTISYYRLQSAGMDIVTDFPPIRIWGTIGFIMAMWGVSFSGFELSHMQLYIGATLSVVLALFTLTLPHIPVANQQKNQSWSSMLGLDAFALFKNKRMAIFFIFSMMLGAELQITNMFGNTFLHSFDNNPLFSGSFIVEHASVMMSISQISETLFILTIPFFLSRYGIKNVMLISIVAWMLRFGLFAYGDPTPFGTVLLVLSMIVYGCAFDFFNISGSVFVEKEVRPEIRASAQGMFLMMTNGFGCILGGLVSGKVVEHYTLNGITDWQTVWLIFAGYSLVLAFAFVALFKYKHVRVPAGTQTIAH
# T2: KpNupG (Klebsiella pneumoniae, UniProt A6TDX2)
# T2 construct: gene nupG; full-length, C-terminal biotin-acceptor domain tag (pT7-5/-BAD), expressed in E. coli JW2389 (nupC knockout)
# T2 sequence (A6TDX2 1-417): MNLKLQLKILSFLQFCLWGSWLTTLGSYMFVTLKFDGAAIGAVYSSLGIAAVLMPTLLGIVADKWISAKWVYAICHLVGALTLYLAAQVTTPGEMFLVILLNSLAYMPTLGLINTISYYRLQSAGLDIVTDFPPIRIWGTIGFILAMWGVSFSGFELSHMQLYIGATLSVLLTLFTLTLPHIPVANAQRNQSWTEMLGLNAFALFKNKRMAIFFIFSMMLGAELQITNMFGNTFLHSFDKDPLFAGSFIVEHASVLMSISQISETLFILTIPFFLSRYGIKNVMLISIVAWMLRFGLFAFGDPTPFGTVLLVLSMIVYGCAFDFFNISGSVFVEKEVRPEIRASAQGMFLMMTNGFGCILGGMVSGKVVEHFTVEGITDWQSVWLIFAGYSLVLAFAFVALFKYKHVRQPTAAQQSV
# T3: NupG (Escherichia coli, UniProt P0AFF4)
# T3 construct: full-length, C-terminal biotin-acceptor domain tag (pT7-5/-BAD), expressed in E. coli JW2389 (nupC knockout)
# T3 sequence (P0AFF4 1-418): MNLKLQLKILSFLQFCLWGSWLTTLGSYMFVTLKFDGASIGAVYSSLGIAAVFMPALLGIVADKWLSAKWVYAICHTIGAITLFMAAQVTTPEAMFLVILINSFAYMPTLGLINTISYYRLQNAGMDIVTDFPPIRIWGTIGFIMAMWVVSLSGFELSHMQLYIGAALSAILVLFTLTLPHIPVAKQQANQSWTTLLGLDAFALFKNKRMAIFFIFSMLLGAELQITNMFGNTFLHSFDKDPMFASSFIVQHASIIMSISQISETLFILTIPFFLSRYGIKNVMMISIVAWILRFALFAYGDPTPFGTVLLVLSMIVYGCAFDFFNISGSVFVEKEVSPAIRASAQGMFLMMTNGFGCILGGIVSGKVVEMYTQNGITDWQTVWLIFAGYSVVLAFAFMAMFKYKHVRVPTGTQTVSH
# T4: NupC (Escherichia coli, UniProt P0AFF2)
# T4 construct: full-length, C-terminal biotin-acceptor domain tag (pT7-5/-BAD), expressed in E. coli JW2389 (nupC knockout)
# T4 sequence (P0AFF2 1-400): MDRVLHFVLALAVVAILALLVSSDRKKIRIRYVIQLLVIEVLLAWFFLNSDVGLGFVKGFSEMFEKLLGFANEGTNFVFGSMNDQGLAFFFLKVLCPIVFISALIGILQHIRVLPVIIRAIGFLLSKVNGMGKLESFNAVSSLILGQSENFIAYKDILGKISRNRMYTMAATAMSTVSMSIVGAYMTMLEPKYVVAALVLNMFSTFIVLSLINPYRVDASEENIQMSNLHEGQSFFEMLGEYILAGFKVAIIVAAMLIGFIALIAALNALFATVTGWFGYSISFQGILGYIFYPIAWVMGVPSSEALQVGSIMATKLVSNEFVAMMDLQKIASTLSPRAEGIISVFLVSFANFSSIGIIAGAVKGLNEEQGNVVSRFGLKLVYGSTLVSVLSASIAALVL
# Columns and labels:
# [1] = tested on: Nc1ccn([C@@H]2O[C@H](CO)[C@@H](O)C2(F)F)c(=O)n1; test: cells, lysate or membranes; assay type: cell-based, Citrobacter freundii; details: labelled compound, pH 6.5, 25 °C, glycerol-energized cells
# [2] = tested on: Nc1ccn([C@@H]2O[C@H](CO)[C@@H](O)C2(F)F)c(=O)n1; test: cells, lysate or membranes; assay type: cell-based, Escherichia coli; details: labelled compound, pH 6.5, 25 °C, glycerol-energized cells
# [3] = tested on: Nc1ccn([C@@H]2O[C@H](CO)[C@@H](O)C2(F)F)c(=O)n1; test: cells, lysate or membranes; assay type: cell-based, Klebsiella pneumoniae; details: labelled compound, pH 6.5, 25 °C, glycerol-energized cells
# [4] = molecular target: T5, KpNupC (Klebsiella pneumoniae, UniProt A0A0H3H172); test: inhibition of [3H]-gemcitabine uptake in E. coli JW2389; assay type: cell-based
# T5 construct: gene KPHS_38160; full-length, C-terminal biotin-acceptor domain tag (pT7-5/-BAD), expressed in E. coli JW2389 (nupC knockout)
# T5 sequence (A0A0H3H172 entry or part of it): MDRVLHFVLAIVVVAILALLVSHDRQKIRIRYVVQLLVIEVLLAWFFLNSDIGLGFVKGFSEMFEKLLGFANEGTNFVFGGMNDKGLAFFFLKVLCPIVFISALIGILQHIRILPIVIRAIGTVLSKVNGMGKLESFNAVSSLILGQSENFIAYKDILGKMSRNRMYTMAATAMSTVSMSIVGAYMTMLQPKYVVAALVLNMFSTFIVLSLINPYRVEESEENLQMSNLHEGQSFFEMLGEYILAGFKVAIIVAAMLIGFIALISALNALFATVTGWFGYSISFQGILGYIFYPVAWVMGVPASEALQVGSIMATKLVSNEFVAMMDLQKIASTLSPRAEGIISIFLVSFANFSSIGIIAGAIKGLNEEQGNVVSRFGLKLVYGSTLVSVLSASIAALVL
# Excerpt: inhibition of [3H]-gemcitabine uptake in E. coli JW2389 on KpNupC
# [5] = molecular target: T1, CfNupG; test: as above; assay type: cell-based; details: read-out: Inhibition by Other Nucleosides / Ki (μM) (Cytidine)
# Excerpt: inhibition of [3H]-gemcitabine uptake in E. coli JW2389 on CfNupG
# [6] = molecular target: T6, CfNupC (Citrobacter freundii, UniProt A0A0D7LF62); test: as above; assay type: cell-based; details: read-out: Inhibition by Other Nucleosides / Ki (μM) (Cytidine)
# T6 construct: gene nupC; full-length, C-terminal biotin-acceptor domain tag (pT7-5/-BAD), expressed in E. coli JW2389 (nupC knockout)
# T6 sequence (A0A0D7LF62 entry or part of it): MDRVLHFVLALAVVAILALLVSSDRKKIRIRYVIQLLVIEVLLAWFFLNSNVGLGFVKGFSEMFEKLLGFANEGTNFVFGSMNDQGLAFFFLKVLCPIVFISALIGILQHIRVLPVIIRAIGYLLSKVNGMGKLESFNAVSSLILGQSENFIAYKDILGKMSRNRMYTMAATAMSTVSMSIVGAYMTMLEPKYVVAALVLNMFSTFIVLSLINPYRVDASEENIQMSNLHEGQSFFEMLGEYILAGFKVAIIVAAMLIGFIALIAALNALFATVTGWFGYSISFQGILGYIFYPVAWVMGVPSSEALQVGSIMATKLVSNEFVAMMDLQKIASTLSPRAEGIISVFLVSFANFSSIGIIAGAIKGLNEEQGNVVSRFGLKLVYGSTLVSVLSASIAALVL
# Excerpt: inhibition of [3H]-gemcitabine uptake in E. coli JW2389 on CfNupC
# [7] = molecular target: T7, KpNupC2 (Klebsiella pneumoniae, UniProt A6T7A8); test: as above; assay type: cell-based
# T7 construct: gene nupC; full-length, C-terminal biotin-acceptor domain tag (pT7-5/-BAD), expressed in E. coli JW2389 (nupC knockout)
# T7 sequence (A6T7A8 entry or part of it): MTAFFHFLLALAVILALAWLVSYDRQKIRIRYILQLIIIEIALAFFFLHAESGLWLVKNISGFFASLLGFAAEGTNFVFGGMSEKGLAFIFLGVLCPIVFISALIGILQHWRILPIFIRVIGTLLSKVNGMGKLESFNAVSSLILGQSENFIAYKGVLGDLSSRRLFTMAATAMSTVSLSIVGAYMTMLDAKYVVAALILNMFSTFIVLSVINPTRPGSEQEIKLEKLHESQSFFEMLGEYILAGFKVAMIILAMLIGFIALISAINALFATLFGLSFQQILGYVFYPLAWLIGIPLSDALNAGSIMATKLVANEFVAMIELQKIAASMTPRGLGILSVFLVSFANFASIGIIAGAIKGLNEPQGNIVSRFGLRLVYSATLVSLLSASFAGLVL
# Excerpt: inhibition of [3H]-gemcitabine uptake in E. coli JW2389 on KpNupC2
# [8] = molecular target: T2, KpNupG; test: as above; assay type: cell-based
# Excerpt: inhibition of [3H]-gemcitabine uptake in E. coli JW2389 on KpNupG
# [9] = molecular target: T3, NupG; test: as above; assay type: cell-based
# Excerpt: inhibition of [3H]-gemcitabine uptake in E. coli JW2389 on NupG
# [10] = tested on: Nc1ccn([C@@H]2O[C@H](CO)[C@@H](O)C2(F)F)c(=O)n1; test: cells, lysate or membranes; details: labelled compound, pH 6.5, 25 °C, glycerol-energized cells
# [11] = molecular target: T4, NupC; test: inhibition of [3H]-gemcitabine uptake in E. coli JW2389; assay type: cell-based; details: read-out: Inhibition by Other Nucleosides / Ki (μM) (Adenosine)
# Excerpt: inhibition of [3H]-gemcitabine uptake in E. coli JW2389 on NupC
# [12] = substrate: Nc1ccn([C@@H]2O[C@H](CO)[C@@H](O)C2(F)F)c(=O)n1; test: cells, lysate or membranes; details: labelled compound, pH 6.5, 25 °C, glycerol-energized cells; remark: listed apart in the source
# [13] = read-out: Inhibition by Other Nucleosides / Ki (μM) (Cytidine)
molecule,measurement,setting,value
CfNupC (Citrobacter freundii),Km,[1],12.8 ± 1.3 µM
same,Vmax,[1],0.102 µmol/min/mg
same,Vmax/Km,[1],7800 µL/min/mg
NupC (Escherichia coli K-12),Km,[2],9.8 ± 1.0 µM
same,Vmax,[2],0.0994 µmol/min/mg
same,Vmax/Km,[2],10100 µL/min/mg
KpNupC2 (Klebsiella pneumoniae subsp. pneumoniae MGH 78578),Km,[3],11.6 ± 3.2 µM
same,Vmax,[3],0.0873 µmol/min/mg
same,Vmax/Km,[3],7500 µL/min/mg
Nc1ccn([C@@H]2O[C@H](CO)[C@@H](O)[C@H]2O)c(=O)n1 [cytidine],Ki,[4]; [13],6.7 ± 1.3 µM
same,Ki,[5],20.2 ± 3.8 µM
same,Ki,[6],7.2 ± 1.4 µM
same,Ki,[7]; [13],6.5 ± 1 µM
same,Ki,[8]; [13],18.1 ± 4 µM
CfNupG (Citrobacter freundii),Km,[1],2.7 ± 0.3 µM
same,Vmax,[1],0.0474 µmol/min/mg
same,Vmax/Km,[1],17200 µL/min/mg
Nc1nc2c(ncn2[C@@H]2O[C@H](CO)[C@@H](O)[C@H]2O)c(=O)[nH]1 [guanosine],Ki,[9],15.3 ± 5.8 µM
same,Ki,[8]; read-out: Inhibition by Other Nucleosides / Ki (μM) (Guanosine),18.3 ± 4.5 µM
KpNupC (Klebsiella pneumoniae subsp. pneumoniae HS11286),Km,[10],10.9 ± 2.0 µM
same,Vmax,[10],0.0928 µmol/min/mg
same,Vmax/Km,[10],8600 µL/min/mg
Nc1ncnc2c1ncn2[C@@H]1O[C@H](CO)[C@@H](O)[C@H]1O [adenosine],Ki,[11],5.4 ± 1.4 µM
same,Ki,[4]; read-out: Inhibition by Other Nucleosides / Ki (μM) (Adenosine),7.7 ± 0.8 µM
O=c1ccn([C@@H]2O[C@H](CO)[C@@H](O)[C@H]2O)c(=O)[nH]1 [uridine],Ki,[7],6.1 ± 1 µM
KpNupG (Klebsiella pneumoniae subsp. pneumoniae MGH 78578) (protein) MNLKLQLKILSFLQFCLWGSWLTTLGSYMFVTLKFDGAAIGAVYSSLGIAAVLMPTLLGIVADKWISAKWVYAICHLVGALTLYLAAQVTTPGEMFLVILLNSLAYMPTLGLINTISYYRLQSAGLDIVTDFPPIRIWGTIGFILAMWGVSFSGFELSHMQLYIGATLSVLLTLFTLTLPHIPVANAQRNQSWTEMLGLNAFALFKNKRMAIFFIFSMMLGAELQITNMFGNTFLHSFDKDPLFAGSFIVEHASVLMSISQISETLFILTIPFFLSRYGIKNVMLISIVAWMLRFGLFAFGDPTPFGTVLLVLSMIVYGCAFDFFNISGSVFVEKEVRPEIRASAQGMFLMMTNGFGCILGGMVSGKVVEHFTVEGITDWQSVWLIFAGYSLVLAFAFVALFKYKHVRQPTAAQQSV,Km,[12],2.8 ± 0.3 µM
same,Vmax,[12],0.0456 µmol/min/mg
same,Vmax/Km,[12],17100 µL/min/mg
NupG (Escherichia coli K-12) (protein) MNLKLQLKILSFLQFCLWGSWLTTLGSYMFVTLKFDGASIGAVYSSLGIAAVFMPALLGIVADKWLSAKWVYAICHTIGAITLFMAAQVTTPEAMFLVILINSFAYMPTLGLINTISYYRLQNAGMDIVTDFPPIRIWGTIGFIMAMWVVSLSGFELSHMQLYIGAALSAILVLFTLTLPHIPVAKQQANQSWTTLLGLDAFALFKNKRMAIFFIFSMLLGAELQITNMFGNTFLHSFDKDPMFASSFIVQHASIIMSISQISETLFILTIPFFLSRYGIKNVMMISIVAWILRFALFAYGDPTPFGTVLLVLSMIVYGCAFDFFNISGSVFVEKEVSPAIRASAQGMFLMMTNGFGCILGGIVSGKVVEMYTQNGITDWQTVWLIFAGYSVVLAFAFMAMFKYKHVRVPTGTQTVSH,Km,[12],2.8 ± 0.4 µM
same,Vmax,[12],0.0461 µmol/min/mg
same,Vmax/Km,[12],16600 µL/min/mg
